Measurements published in article PMC6476560 (PLoS ONE, 2019).

Legend:
Assay in all cases: MST
[1] = target: fluorescently labelled Dop (deamidase of Pup; depupylase) (UniProt P9WNU9)
[2] = target: fluorescein-labelled wild-type MtbMpa (Mycobacterium tuberculosis) (UniProt P9WQN5)
[3] = target: T1, fluorescein-labelled wild-type MtbMpa (Mycobacterium tuberculosis, UniProt P9WQN5 1-609); settings: both partners purified
T1 sequence: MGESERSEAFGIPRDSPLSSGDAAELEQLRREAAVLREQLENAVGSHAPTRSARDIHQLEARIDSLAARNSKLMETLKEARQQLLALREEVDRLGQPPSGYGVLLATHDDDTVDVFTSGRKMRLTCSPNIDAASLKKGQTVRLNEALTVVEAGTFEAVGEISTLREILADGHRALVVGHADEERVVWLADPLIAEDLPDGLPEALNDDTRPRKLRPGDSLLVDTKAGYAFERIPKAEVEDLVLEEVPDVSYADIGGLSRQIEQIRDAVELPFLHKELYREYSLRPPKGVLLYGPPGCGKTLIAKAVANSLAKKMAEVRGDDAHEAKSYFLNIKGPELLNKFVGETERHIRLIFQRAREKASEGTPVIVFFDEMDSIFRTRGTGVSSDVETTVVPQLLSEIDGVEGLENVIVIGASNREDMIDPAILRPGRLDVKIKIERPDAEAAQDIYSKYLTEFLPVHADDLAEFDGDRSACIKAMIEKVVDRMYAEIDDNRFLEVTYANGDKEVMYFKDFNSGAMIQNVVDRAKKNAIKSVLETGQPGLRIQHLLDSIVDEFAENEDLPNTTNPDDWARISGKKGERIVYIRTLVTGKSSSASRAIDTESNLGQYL

[4] = target: T2, Pup-MSMEG_1807 (pupylated alpha-chain of propionyl-CoA carboxylase of M. smegmatis) (Mycobacterium smegmatis | Mycobacterium …, UniProt A0QTE1 1-598; P9WHN5 1-64, PupE (C-terminal glutamine as glutamate)); settings: both partners purified
T2 construct: copies: 2 + 1

[5] = target: T3, Pup-MSMEG_5049 (pupylated 2-oxoglutarate dehydrogenase E1 of M. smegmatis) (Mycobacterium smegmatis | Mycobacterium …, UniProt A0R2B1;P9WHN5, PupE (C-terminal glutamine as glutamate)); settings: both partners purified
T3 construct: copies: 2 + 1
T3 sequence 1: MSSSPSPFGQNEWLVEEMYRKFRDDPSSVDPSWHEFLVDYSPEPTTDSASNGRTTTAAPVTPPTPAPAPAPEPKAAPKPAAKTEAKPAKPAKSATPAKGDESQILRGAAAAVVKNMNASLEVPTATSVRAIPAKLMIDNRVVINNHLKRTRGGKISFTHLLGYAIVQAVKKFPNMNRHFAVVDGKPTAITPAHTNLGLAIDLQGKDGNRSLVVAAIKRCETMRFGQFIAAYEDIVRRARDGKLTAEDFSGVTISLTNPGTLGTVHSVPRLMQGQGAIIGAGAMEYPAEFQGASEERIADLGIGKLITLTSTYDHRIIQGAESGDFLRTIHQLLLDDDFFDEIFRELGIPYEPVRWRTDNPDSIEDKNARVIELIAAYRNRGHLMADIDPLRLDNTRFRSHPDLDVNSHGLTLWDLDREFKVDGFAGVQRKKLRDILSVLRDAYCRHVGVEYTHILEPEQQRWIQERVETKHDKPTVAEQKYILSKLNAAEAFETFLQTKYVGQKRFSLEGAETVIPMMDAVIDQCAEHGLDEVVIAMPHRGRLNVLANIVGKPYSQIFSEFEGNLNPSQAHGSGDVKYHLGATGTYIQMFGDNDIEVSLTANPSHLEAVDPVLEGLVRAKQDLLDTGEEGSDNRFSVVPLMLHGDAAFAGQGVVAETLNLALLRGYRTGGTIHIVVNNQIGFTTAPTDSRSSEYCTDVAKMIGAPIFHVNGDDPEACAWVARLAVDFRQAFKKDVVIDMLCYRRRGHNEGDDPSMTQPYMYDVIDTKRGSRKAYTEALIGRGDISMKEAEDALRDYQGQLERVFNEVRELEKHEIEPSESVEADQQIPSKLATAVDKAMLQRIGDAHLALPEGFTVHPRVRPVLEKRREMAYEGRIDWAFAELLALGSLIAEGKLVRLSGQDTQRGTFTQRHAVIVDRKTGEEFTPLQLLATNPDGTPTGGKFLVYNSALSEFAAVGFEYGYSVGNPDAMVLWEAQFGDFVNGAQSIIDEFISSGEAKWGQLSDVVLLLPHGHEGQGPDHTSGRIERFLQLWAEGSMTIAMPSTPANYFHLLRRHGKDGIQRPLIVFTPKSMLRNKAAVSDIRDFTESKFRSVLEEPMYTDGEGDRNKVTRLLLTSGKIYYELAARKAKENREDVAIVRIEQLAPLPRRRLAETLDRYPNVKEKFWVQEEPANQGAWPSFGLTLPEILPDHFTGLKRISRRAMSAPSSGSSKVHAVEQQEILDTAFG
T3 sequence 2: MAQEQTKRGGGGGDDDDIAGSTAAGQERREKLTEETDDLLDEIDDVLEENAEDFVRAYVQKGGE

Molecule: Pup-MSMEG_2412 (pupylated pyruvate carboxylase of M. smegmatis) (from UniProt P9WHN5 1-64) (complex)
- Kd [1]: 114 nM

Molecule: Pup-FabD3KR (pupylated malonyl transacylase FabD, triple lysine-to-arginine variant) (from UniProt P9WNG5;P9WHN5) (complex)
- Kd [2]: 240 nM

B1: MtbPupE (prokaryotic ubiquitin-like protein Pup with C-terminal glutamate), free (natural protein)
chain: MAQEQTKRGGGGGDDDDIAGSTAAGQERREKLTEETDDLLDEIDDVLEENAEDFVRAYVQKGGE
- Kd [3]: 3310 ± 650 nM

B2: fluorescently labelled Dop (deamidase of Pup; depupylase) (enzyme)
chain: MQRIIGTEVEYGISSPSDPTANPILTSTQAVLAYAAAAGIQRAKRTRWDYEVESPLRDARGFDLSRSAGPPPVVDADEVGAANMILTNGARLYVDHAHPEYSAPECTDPLDAVIWDKAGERVMEAAARHVASVPGAAKLQLYKNNVDGKGASYGSHENYLMSRQTPFSAIITGLTPFLVSRQVVTGSGRVGIGPSGDEPGFQLSQRSDYIEVEVGLETTLKRGIINTRDEPHADADRYRRLHVIIGDANLAETSTYLKLGTTALVLDLIEEGPAHAIDLTDLALARPVHAVHAISRDPSLRATVALADGRELTGLALQRIYLDRVAKLVDSRDPDPRAADIVETWAHVLDQLERDPMDCAELLDWPAKLRLLDGFRQRENLSWSAPRLHLVDLQYSDVRLDKGLYNRLVARGSMKRLVTEHQVLSAVENPPTDTRAYFRGECLRRFGADIAAASWDSVIFDLGGDSLVRIPTLEPLRGSKAHVGALLDSVDSAVELVEQLTAEPR
- Kd [4]: 339 ± 55 nM
- Kd [5]: 121 ± 28 nM
